Experimental data from PMC9605988, “Juxtaposition of Bub1 and Cdc20 on phosphorylated Mad1 during catalytic mitotic checkpoint complex assembly” (Nature Communications, 2022).
Entries after “also recorded” stand apart in the source; their conditions may differ. Read-outs that look alike come from different tables or passages of the source. Each block holds one molecule with its values, some of them ahead of it.

Experiments:
[1] = target: T1, Mad1CTD (unphosphorylated) (Homo sapiens, UniProt Q9Y6D9); experiment: 1H,15N HSQC / CON NMR titration with unphosphorylated Mad1CTD; type: binding; conditions: peptide titration, 298 K
T1 construct: the C-terminal domain of Mad1 (residue 597–718); made in house
T1 sequence (Q9Y6D9 597-718): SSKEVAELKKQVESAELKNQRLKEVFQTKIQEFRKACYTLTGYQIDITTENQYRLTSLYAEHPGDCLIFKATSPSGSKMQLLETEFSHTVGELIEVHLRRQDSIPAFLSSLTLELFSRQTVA
Protocol: (§1) Uniformly-labelled proteins were expressed in M9 minimal media (6 g/L Na2HPO4, 3 g/L KH2PO4, 0.5 g/L NaCl) supplemented with 1.7 g/L yeast nitrogen base without NH4Cl and amino acids (Sigma Y1251). 1 g/L ^15NH4Cl and 4 g/L unlabelled glucose were supplemented for ^15N labelling. For ^13C/ ^15N double-labelled samples, unlabelled glucose was replaced with 3 g/L ^13C-glucose. Prior to all NMR experiments, proteins were dialysed into 20 mM HEPES, pH 7.0, 100 mM NaCl and 1 mM TCEP.
The following protein concentrations were used in NMR studies: ^1H,^15N HSQC of Mad1^CTD were collected with a 100 µM sample, whereas a 50 µM sample was used for titrations with Cdc20^N and Cdc20^α1. […] To follow the O-to-C conversion of Mad2, the samples were prepared on ice and monitored using BEST ^1H,^15N-TROSY HSQC. […]
(§2) For binding studies, the relative peak intensities were normalised to the C-terminal residue Ala718 of Mad1^CTD or Gly73 of Cdc20^N and expressed as PIbound/PIfree, with PIfree and PIbound being the peak heights of the free and bound forms, respectively. Weighted chemical shift perturbations were calculated using the equation[63]: Δδ = [(ΔδHNWHN)^2 + (ΔδNWN)^2)^2]^1/2 where ΔδHN and ΔδN are the chemical shift perturbations in ^1H and ^15N dimensions respectively. The weight factors were determined from the average variances of chemical shifts in the BMRB database, where WHN = 1 and WN = 0.16.

pMad1CTD = experiment: 1H,15N HSQC / CON NMR titration with pMad1CTD; type: binding, human; conditions: peptide titration, 298 K
Protocol: as §1
(§3) The following protein concentrations were used in NMR studies: ^1H,^15N HSQC of Mad1^CTD were collected with a 100 µM sample, whereas a 50 µM sample was used for titrations with Cdc20^N and Cdc20^α1. Cdc20^Box1 peptide was added at mM concentrations to minimise dilution during titration. […] Mad1^CTD was concentrated to 3 mM for titrations into Cdc20^N. ^1H,^15N HSQC of Mad2 were collected at 100 µM. All Mad2 NMR samples contain an R133A mutation to prevent Mad2 dimerisation. The C-Mad2 sample additionally contains an L13A mutation which favours the C-Mad2 state. Cdc20^MIM-bound C-Mad2 sample was prepared by adding a 1:2 excess of Cdc20^MIM peptide to an O-Mad2 sample with R133A mutation. To follow the O-to-C conversion of Mad2, the samples were prepared on ice and monitored using BEST ^1H,^15N-TROSY HSQC. The spectra were acquired with 16 scans and a recycle delay of 400 msec, giving an experimental time of 12 min per spectrum.
(§4) Mad1^CTD and Mad2 experiments were performed using an in-house 800 MHz Avance III spectrometer and Cdc20^N experiments were performed using an in-house 700 MHz Avance II + spectrometer, both equipped with triple resonance TCI CryoProbes. To retrieve signals that suffer from exchange broadening, we also utilised the Bruker 950 MHz Avance III spectrometer located at MRC Biomedical NMR Centre (Francis Crick Institute). Mad1^CTD and Mad2 spectra were collected at 298 K. Cdc20^N spectra were collected at 278 K to minimise exchange broadening for the largely disordered Cdc20^N.
as §2

O-Mad2 R133A = target: T2, O-Mad2 R133A (Homo sapiens, UniProt Q13257, R133A); experiment: NMR-monitored conversion of O-Mad2 to C-Mad2; type: biochemical; conditions: for O-Mad2 to C-Mad2 conversion: substoichiometric 2 µM Cdc20MIM (1:50) to 100 µM O-Mad2 R133A
T2 construct: made in house
T2 sequence (Q13257 whole entry R133A): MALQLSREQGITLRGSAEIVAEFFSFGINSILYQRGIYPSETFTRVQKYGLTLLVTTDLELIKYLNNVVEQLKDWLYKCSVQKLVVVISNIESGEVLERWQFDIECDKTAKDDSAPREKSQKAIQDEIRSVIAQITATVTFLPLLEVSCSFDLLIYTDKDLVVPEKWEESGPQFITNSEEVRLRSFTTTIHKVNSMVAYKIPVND
Protocol: as §3, §4

[2] = target: the molecule itself; experiment: SEC + SEC-MALS; Mad1:C-Mad2 tetramer re-purified by SEC after adding excess Mad2; hexamer formed with an excess of Mad2LL; homogeneity confirmed by SEC-MALS
[3] = target: T3, preformed AF488-Bub1^CD1:Mad1^CTD complex (Mad1^CTD unphosphorylated) (UniProt Q9Y6D9 597-718, Aurora Fluor 488 (AF488) on the N-terminal Cys; phosphoserine (pSer459); phosphothreonine (pThr461)); experiment: fluorescence polarisation; fluorescence anisotropy; Cdc20^N twofold series (100 μM to 6 nM, mixed 1:1) titrated into preformed AF488-Bub1^CD1:Mad1^CTD (20 nM: 2.1 µM); 25 mM HEPES pH 7.75, 1 mM TCEP, 100 mM NaCl, 0.05% Tween-20; 25 °C; conditions: both partners purified
T3 construct: Mad1 C-terminal domain (Mad1^CTD), residues 597-718; as m1; added N-terminal Cys (carries AF488) and Trp; as m7; Bub1 conserved domain 1 (CD1) peptide; also called Mad1^CTD:AF488-Bub1^CD1 complex; source: mixed from purified Mad1^CTD and synthetic peptide (20 nM: 2.1 µM); copies: 2 + 1
T3 sequence 1: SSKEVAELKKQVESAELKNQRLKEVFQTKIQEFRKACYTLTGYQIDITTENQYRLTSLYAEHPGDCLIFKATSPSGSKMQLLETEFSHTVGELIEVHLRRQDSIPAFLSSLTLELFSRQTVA
T3 sequence 2: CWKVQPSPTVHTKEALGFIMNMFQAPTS

[4] = target: T4, preformed AF488-Bub1^CD1:pMad1^CTD complex (Mad1^CTD phosphorylated at Thr716) (UniProt Q9Y6D9 597-718, phosphothreonine at 716 (pThr716) | Aurora Fluor 488 (AF488) on the N-terminal Cys; phosphoserine (pSer459); phosphothreonine (pThr461)); experiment: as above; conditions: both partners purified
T4 construct: Mad1 C-terminal domain (Mad1^CTD), residues 597-718; as m2; added N-terminal Cys (carries AF488) and Trp; as m7; Bub1 conserved domain 1 (CD1) peptide; source: mixed from purified pMad1^CTD and synthetic peptide (20 nM: 2.1 µM); copies: 2 + 1
T4 sequence 1: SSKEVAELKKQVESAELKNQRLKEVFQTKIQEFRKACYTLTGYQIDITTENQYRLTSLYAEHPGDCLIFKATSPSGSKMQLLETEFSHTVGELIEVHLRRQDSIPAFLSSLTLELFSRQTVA
T4 sequence 2: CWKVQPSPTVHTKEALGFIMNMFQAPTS

pMad1CTD (Mad1CTD pT716) = experiment: SEC-MALS, Cdc20N with pMad1CTD; type: binding, human; conditions: 1:1.2 ratio Mad1CTD dimer to Cdc20N
Protocol: Size-exclusion chromatography coupled with multi-angle static light scattering (SEC-MALS), was performed using an Agilent 1200 series LC system with an online Dawn Helios ii system (Wyatt) equipped with a QELS + module (Wyatt) and an Optilab rEX differential refractive index detector (Wyatt). About 100 μl purified protein at ~3.0 mg/ml was auto-injected onto Superdex 75 or a Superdex 200 Increase 10/300 GL column (GE Healthcare) and run at 0.5 ml/min. The molecular masses were analysed with ASTRA 7.3.0.11 (Wyatt). Data were plotted using Prism 8.4.3 (GraphPad Software, Inc). Purified Cdc20^N and Cdc20^N mutants were incubated with Mad1^CTD wild-type or mutants at a 1:1.2 ratio of Mad1^CTD dimer to Cdc20^N.

Cdc20 = conditions: cited from earlier work
From the text: NMR spectroscopy was used to obtain structural insights into the Cdc20^N:Mad1^CTD interaction. Unlabelled Cdc20^N was titrated into either ^15N-labelled Mad1^CTD or pMad1^CTD (Fig. 2c, d and Supplementary Fig. 3a, b). […] Similar to Bub1^CD1, the interaction of Cdc20 α1 with Mad1^CTD would largely be driven by hydrophobic interactions (Fig. 4e). This model predicts that Gln3 and Glu7, and Asp9 of Cdc20 α1 interact with Arg617 and Lys619, respectively of the Mad1^CTD RLK motif (Fig. 4d). This is consi ...

Molecule: O-Mad2: open Mad2 with R133A mutation to prevent dimerisation
time for O-Mad2 to C-Mad2 conversion (O-Mad2 R133A; absence of Cdc20MIM, peer review response): 24 h

B1: Mad1^485–718 (Mad1^485), unphosphorylated (domain or fragment, UniProt Q9Y6D9 485-718, looked up)
chain: SSAEQSFLFSREEADTLRLKVEELEGERSRLEEEKRMLEAQLERRALQGDYDQSRTKVLHMSLNPTSVARQRLREDHSQLQAECERLRGLLRAMERGGTVPADLEAAAASLPSSKEVAELKKQVESAELKNQRLKEVFQTKIQEFRKACYTLTGYQIDITTENQYRLTSLYAEHPGDCLIFKATSPSGSKMQLLETEFSHTVGELIEVHLRRQDSIPAFLSSLTLELFSRQTVA
notes: Mad1 residues 485-718; Construct His6-DoubleStrep-TEV-Mad1^485–718; two copies in the tetramer and hexamer with Mad2; also called Mad1 residues 485–718
binding result [2]: binds

B2: Mad1^485–718 phosphorylated by Mps1 (pMad1^485) (domain or fragment, UniProt Q9Y6D9 485-718, looked up)
chain: SSAEQSFLFSREEADTLRLKVEELEGERSRLEEEKRMLEAQLERRALQGDYDQSRTKVLHMSLNPTSVARQRLREDHSQLQAECERLRGLLRAMERGGTVPADLEAAAASLPSSKEVAELKKQVESAELKNQRLKEVFQTKIQEFRKACYTLTGYQIDITTENQYRLTSLYAEHPGDCLIFKATSPSGSKMQLLETEFSHTVGELIEVHLRRQDSIPAFLSSLTLELFSRQTVA
modifications: phosphothreonine at 716 (predominant); lower abundant phosphorylation at Thr500, Ser538, Thr540, Thr550 and Ser551
notes: Mad1 residues 485-718; Predominantly one phosphate per monomer by intact mass; also called phosphorylated Mad1^485; phosphorylated Mad1^485–718
binding result [2]: binds

B5: Q648A/R650A: mutation of the conserved QYRL motif within Mad1CTD, ref 33 (protein, UniProt Q9Y6D9 597-718, looked up, variant Q648A R650A)
chain: SSKEVAELKKQVESAELKNQRLKEVFQTKIQEFRKACYTLTGYQIDITTENAYALTSLYAEHPGDCLIFKATSPSGSKMQLLETEFSHTVGELIEVHLRRQDSIPAFLSSLTLELFSRQTVA
binding of Cdc20 to Mad1 mutant (Cdc20): impaired binding to Cdc20
binding of Cdc20 to Mad1 mutant (Cdc20; listed as Q648A and R650A): impaired binding of Cdc20^N to Mad1

B6: Mad1^CTD RLK/AAA: Mad1CTD RLK/AAA (residues 617-619) mutant, ref 33 (protein, UniProt Q9Y6D9 597-718, looked up, variant R617A L618A K619A)
chain: SSKEVAELKKQVESAELKNQAAAEVFQTKIQEFRKACYTLTGYQIDITTENQYRLTSLYAEHPGDCLIFKATSPSGSKMQLLETEFSHTVGELIEVHLRRQDSIPAFLSSLTLELFSRQTVA
binding of Cdc20 to Mad1 mutant (Cdc20): abolished Cdc20 binding
binding of Cdc20 to Mad1 mutant (Cdc20; listed as RLK/AAA): impaired binding of Cdc20^N to Mad1

Now from value to molecule, other results behind:

binding by NMR chemical shift perturbation [1]: not Mad1^CTD
binding by NMR chemical shift perturbation (pMad1CTD): binds pMad1^CTD
Molecule: PPARWQRKAKEAA [Cdc20 Box1, Box1 motif peptide of Cdc20]
binding by NMR chemical shift perturbation (pMad1CTD; listed as pMad1CTD:Cdc20Box1): appeared stronger than that between pMad1CTD:Cdc20α1

O-Mad2 to C-Mad2 conversion (O-Mad2 R133A): cannot be achieved
Molecule: NLNGFDVEEAKILRLSGKPQNAPEGYQNRLKVLY [Cdc20^MIM]
O-Mad2 to C-Mad2 conversion (O-Mad2 R133A; listed as Cdc20MIM): The majority of Mad2 remains in an open state; also recorded: nearly all of Mad2 remains in an open state

binding by NMR chemical shift perturbation (pMad1CTD): weak interaction; also recorded: weaker
Molecule: MAQFAFESDLHSLL [Cdc20 α1, N-terminal α1 helix peptide of Cdc20]

Kd [3]: 18 µM
Kd [4]: 23 µM
B3: Cdc20^N RRK/SSS mutant (Arg27, Arg30, Lys31 to Ser) (domain or fragment, human, UniProt Q12834 1-73, looked up)
chain: MAQFAFESDLHSLLQLDAPIPNAPPASWQSSAKEAAGPAPSPMRAANRSHSAGRTPGRTPGKSSSKVQTTPSK
notes: human Cdc20, residues 1-73; The purification (with tag cleavage) is told for Cdc20^N; likely the same for the mutant; source: site-directed mutant of the Cdc20^N construct, purified

binding by SEC-MALS (pMad1CTD (Mad1CTD pT716)): abolished its interaction with pMad1^CTD
B4: Cdc20^N RRK/SSS: Cdc20N with Arg27, Arg30, Lys31 mutated to Ser (protein)
chain: MAQFAFESDLHSLLQLDAPIPNAPPASWQSSAKEAAGPAPSPMRAANRSHSAGRTPGRTPGKSSSKVQTTPSK
modifications: left off: His6, N-terminal, state not stated | MBP, N-terminal, state not stated
notes: Cdc20N with Arg27, Arg30, Lys31 mutated to Ser
